Assay [1] has as its target Quenched-fluorescent peptide substrate fluorescein-5(6)-carbonyl-Ala-Glu-Leu-Asn-Gly-Arg-Pro-Ile-Ser-Ile-Ala-Lys(5(6)-TAMRA).
Assay [2] has as its target Biglycan, full length, C-terminal 6x-His (human) (UniProt P21810).
Assay [3] concerns the target Versican V1-5GAG (truncated V1, residues 21-694) (UniProt P13611).
The target of assay [4] is Full-length versican V1 (UniProt P13611).
The target is the same in assay [5]. This is another data set of the same source.
Assay [6] has as its target Versican V1-5GAG (truncated V1, residues 21-694) (UniProt P13611). The source holds these as a separate data set.

Sequence of UniProt P21810 (P21810 38-368): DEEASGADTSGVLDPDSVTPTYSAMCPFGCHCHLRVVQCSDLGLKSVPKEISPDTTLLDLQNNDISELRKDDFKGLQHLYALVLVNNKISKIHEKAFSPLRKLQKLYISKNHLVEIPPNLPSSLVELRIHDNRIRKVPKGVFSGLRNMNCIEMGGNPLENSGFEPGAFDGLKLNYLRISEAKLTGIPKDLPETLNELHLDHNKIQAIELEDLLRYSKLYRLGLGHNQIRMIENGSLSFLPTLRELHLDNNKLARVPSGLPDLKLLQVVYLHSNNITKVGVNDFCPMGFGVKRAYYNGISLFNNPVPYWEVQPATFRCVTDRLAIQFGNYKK

In the case of “ADAMTS1 variant MDTC (truncated after the cysteine-rich domain) (domain or fragment)”, in assay [1], the kcat/Km for proteolysis of the QF peptide came out at 4500 M⁻¹ s⁻¹. Moreover, the reduction of the 30 kDa biglycan fragment against WT ADAMTS1; variant at 50 nM, 24 h at 37 °C, immunoblot and densitometry in assay [2] was found to be 75 % reduction. Also, the kcat/Km for cleavage of V1-5GAG (50 nM), time course with versikine ELISA in assay [3] came out at 260 M⁻¹ s⁻¹.

B1: A disintegrin-like and metalloproteinase with thrombospondin type 1 motifs 1 (ADAMTS1), wild type (enzyme)
chain: FVSSHRYVETMLVADQSMAEFHGSGLKHYLLTLFSVAARLYKHPSIRNSVSLVVVKILVIHDEQKGPEVTSNAALTLRNFCNWQKQHNPPSDRDAEHYDTAILFTRQDLCGSQTCDTLGMADVGTVCDPSRSCSVIEDDGLQAAFTTAHELGHVFNMPHDDAKQCASLNGVNQDSHMMASMLSNLDHSQPWSPCSAYMITSFLDNGHGECLMDKPQNPIQLPGDLPGTSYDANRQCQFTFGEDSKHCPDAASTCSTLWCTGTSGGVLVCQTKHFPWADGTSCGEGKWCINGKCVNKTDRKHFDTPFHGSWGMWGPWGDCSRTCGGGVQYTMRECDNPVPKNGGKYCEGKRVRYRSCNLEDCPDNNGKTFREEQCEAHNEFSKASFGSGPAVEWIPKYAGVSPKDRCKLICQAKGIGYFFVLQPKVVDGTPCSPDSTSVCVQGQCVKAGCDRIIDSKKKFDKCGVCGGNGSTCKKISGSVTSAKPGYHDIITIPTGATNIEVKQRNQRGSRNNGSFLAIKAADGTYILNGDYTLSTLEQDIMYKGVVLRYSGSSAALERIRSFSPLKEPLTIQVLTVGNALRPKIKYTYFVKKKKESFNAIPTFSAWVIEEWGECSKSCELGWQRRLVECRDINGQPASECAKEVKPASTRPCADHPCPQWQLGEWSSCSKTCGKGYKKRSLKCLSHDGGVLSHESCDPLKKPKHFIDFCTMAECS
With B1, the kcat/Km for proteolysis of the QF peptide in assay [1] came to 4200 M⁻¹ s⁻¹. Also, the kcat/Km for cleavage of FL versican, as told in the discussion and the abstract with Full-length versican V1 [4] amounted to 3600 M⁻¹ s⁻¹. Moreover, the kcat/Km for cleavage of V1 (50 nM) at Glu441-Ala442, time course with versikine ELISA, no cofactor with Full-length versican V1 [5] was found to be 3400 M⁻¹ s⁻¹. Further, the kcat/Km for cleavage of V1-5GAG (50 nM) at Glu441-Ala442, time course with versikine ELISA in assay [6] is 4200 M⁻¹ s⁻¹.

The values are drawn from publication PMC10033314.
